The target in assay [1] is rHuman CD44/Fc Chimera, CF (R&D Systems Cat#3660-CD) (human) (UniProt P16070). As to the kind of experiment: ECL multispot (MSD) assay, antigen spotted on plate, 20 nM Fab.
The target of assay [2] is rHuman EGF R/Fc Chimera, CF (R&D Systems Cat#344-ER) (human) (UniProt P00533). The assay is described as above.
In assay [3] the target is rHuman IGF-1 sR, CF (R&D Systems Cat#391-GR) (human) (UniProt P08069). Described as above.
For assay [4], the target named is rHuman Notch-1/Fc Chimera, CF (R&D Systems Cat#3647-TK) (human) (UniProt P46531). The assay is described as above.
Assay [5] addresses rHuman Erythropoietin R/Fc Chimera, CF (R&D Systems Cat#963-ER) (human) (UniProt P19235). As to the kind of experiment: ECL multispot (MSD) binding assay, antigens spotted on plate, 20 nM Fab.
The target of assay [6] is rHuman P-Cadherin/Fc Chimera, CF (R&D Systems Cat#861-PC) (human) (UniProt P22223). Described as above.
The target in assay [7] is rHuman EGF R/Fc Chimera, CF (R&D Systems Cat#344-ER) (human) (UniProt P00533). Briefly: ECL (MSD) multispot binding assay, antigen spotted on plate, 20 nM Fab.
The target in assay [8] is rHuman Notch-1/Fc Chimera, CF (R&D Systems Cat#3647-TK) (human) (UniProt P46531). The description is as above.
Assay [9] addresses rHuman ErbB2/Fc Chimera, CF (R&D Systems Cat#1129-ER) (human) (UniProt P04626). The description is as above.
Assay [10] deals with rHuman Erythropoietin R/Fc Chimera, CF (R&D Systems Cat#963-ER) (human) (UniProt P19235). As to the kind of experiment: Multispot ECL (MSD) assay, antigen spotted on plate, Fab at 42.112 nM; blank spot 323.
Assay [11] has the same target. Briefly: Multispot ECL (MSD) assay, antigen spotted on plate, Fab at 421.12 nM; blank spot 639.
Assay [12] addresses Recombinant Human DLL4 (R&D Systems Cat#1506-D4/CF) (human) (UniProt Q9NR61). As to the kind of experiment: Multispot ECL (MSD), antigen spotted on plate, Fab 12 nM; blank spot 573.
For assay [13], the target named is rHuman ErbB2/Fc Chimera, CF (R&D Systems Cat#1129-ER) (human) (UniProt P04626). The description is as above.
Assay [14] deals with rHuman HGF R/c-MET/Fc Chimera, CF (R&D Systems Cat#358-MT/CF) (human) (UniProt P08581). The description is as above.
Assay [15] has as its target rHuman Notch-1/Fc Chimera, CF (R&D Systems Cat#3647-TK) (human) (UniProt P46531). The description is as above.
Assay [16] has as its target Recombinant Human DLL4 (R&D Systems Cat#1506-D4/CF) (human) (UniProt Q9NR61). Briefly: Multispot ECL (MSD), antigen spotted on plate, Fab 1.2 nM; blank spot 227.
Assay [17] has as its target rHuman ErbB2/Fc Chimera, CF (R&D Systems Cat#1129-ER) (human) (UniProt P04626). The assay is described as above.
In assay [18] the target is rHuman HGF R/c-MET/Fc Chimera, CF (R&D Systems Cat#358-MT/CF) (human) (UniProt P08581). The assay is described as above.
Assay [19] addresses rHuman Notch-1/Fc Chimera, CF (R&D Systems Cat#3647-TK) (human) (UniProt P46531). The description is as above.
Assay [20] has as its target Recombinant Human DLL4 (R&D Systems Cat#1506-D4/CF) (human) (UniProt Q9NR61). Briefly: Multispot ECL (MSD), antigen spotted on plate, Fab 0.12 nM; blank spot 264.
Assay [21] concerns the target rHuman ErbB2/Fc Chimera, CF (R&D Systems Cat#1129-ER) (human) (UniProt P04626). The description is as above.
For assay [22], the target named is rHuman HGF R/c-MET/Fc Chimera, CF (R&D Systems Cat#358-MT/CF) (human) (UniProt P08581). The description is as above.
Assay [23] has as its target rHuman Notch-1/Fc Chimera, CF (R&D Systems Cat#3647-TK) (human) (UniProt P46531). The assay is described as above.
For assay [24], the target named is Recombinant Human DLL4 (R&D Systems Cat#1506-D4/CF) (human) (UniProt Q9NR61). Briefly: Multispot ECL (MSD), antigen spotted on plate, Fab 120 nM; blank spot 6749.
Assay [25] deals with rHuman ErbB2/Fc Chimera, CF (R&D Systems Cat#1129-ER) (human) (UniProt P04626). The assay is described as above.
Assay [26] deals with rHuman HGF R/c-MET/Fc Chimera, CF (R&D Systems Cat#358-MT/CF) (human) (UniProt P08581). Described as above.
Assay [27] has as its target rHuman Notch-1/Fc Chimera, CF (R&D Systems Cat#3647-TK) (human) (UniProt P46531). Described as above.
For assay [28], the target named is Recombinant Human DLL4 (R&D Systems Cat#1506-D4/CF) (human) (UniProt Q9NR61). Briefly: ECL (MSD) multispot binding assay, antigen spotted on plate, Fab in solution.
The target is the same in assay [29]. As to the kind of experiment: ECL multispot (MSD), antigen spotted, Fab in solution.
For assay [30], the target named is rHuman CD44/Fc Chimera, CF (R&D Systems Cat#3660-CD) (human) (UniProt P16070). The description is as above.
Assay [31] concerns the target rHuman EGF R/Fc Chimera, CF (R&D Systems Cat#344-ER) (human) (UniProt P00533). Described as above.
The target in assay [32] is rHuman Erythropoietin R/Fc Chimera, CF (R&D Systems Cat#963-ER) (human) (UniProt P19235). The description is as above.
The target of assay [33] is rHuman HGF R/c-MET/Fc Chimera, CF (R&D Systems Cat#358-MT/CF) (human) (UniProt P08581). Described as above.
For assay [34], the target named is rHuman IGF-1 sR, CF (R&D Systems Cat#391-GR) (human) (UniProt P08069). The assay is described as above.
Assay [35] concerns the target rHuman Notch-1/Fc Chimera, CF (R&D Systems Cat#3647-TK) (human) (UniProt P46531). The description is as above.
Assay [36] addresses rHuman P-Cadherin/Fc Chimera, CF (R&D Systems Cat#861-PC) (human) (UniProt P22223). Described as above.
Assay [37] deals with rHuman IGF-1 sR, (IGF-1 sR), CF (R&D Systems Cat#391-GR) (human) (UniProt P08069). Briefly: Multispot ECL (MSD), antigen spotted on plate, Fab […]; blank spot 359.
Assay [38] shares this target. Briefly: Multispot ECL (MSD), antigen spotted on plate, Fab […]; blank spot 376.
The target is the same in assay [39]. Briefly: Multispot ECL (MSD), antigen spotted on plate, Fab 210 nM; blank spot 833.
Assay [40] shares this target. Briefly: Multispot ECL (MSD), antigen spotted on plate, Fab 52.5 nM; blank spot 467.

The record followed here is patent publication US20120316071A1.

For the substance “Fab VH3-23_IGHD2-21*01>3_IGHJ6*01 H100E/S108P K65A & V2-13_IGLJ2*01”, the ECL signal/blank ratio (read-out not given) in assay [1] was 1.7; in [2], 7.1; in assay [3], 1.4; in assay [4], 3.
As to “Fab VH3-23_IGHD2-21*01>3_IGHJ6*01 H100E/S108P/Y113G Y110H & V2-13_IGLJ2*01”, the ECL multispot signal (ratio to blank; column not labelled) in assay [5] was 3.7; in [6], 2.9.
With “Fab VH3-23_IGHD2-21*01>3_IGHJ6*01 H100E/S108P/Y113G Y112R & V2-13_IGLJ2*01”, the ECL multispot value in assay [7] came out at 3.7.
The substance “Fab VH3-23_IGHD2-21*01>3_IGHJ6*01 H100E/S108P/Y113G Y114E & V2-13_IGLJ2*01” gave an ECL multispot value in [8] of 3.3.
The same measure, in the same setting: with “Fab VH3-23_IGHD2-21*01>3_IGHJ6*01 H100E/S108P/Y113G Y114H & V2-13_IGLJ2*01” the figure was 3.3.
Turning to “Fab VH3-23_IGHD2-21*01>3_IGHJ6*01 H100E/S108P/Y113G Y114N & V2-13_IGLJ2*01”, the ECL multispot value in [9] worked out at 3.5.
Take “Fab VH3-23_IGHD2-21*01>3_IGHJ6*01 H100E/S108P/Y113G/Y111H & V2-13_IGLJ2*01”: the ECL signal/blank ratio is 2.9 in [7] and 3 in assay [9].
For the substance “Fab VH3-23_IGHD3-10*01>1′_IGHJ3*01 & O12_IGKJ1*01”, the ECL signal in [10] is 759; in [11], 1300.
In the case of “Fab VH3-23_IGHD3-10*01>3_IGHJ6*01 & O12_IGKJ1*01”, the ECL signal was found to be 2510 in [12]; 4360 in assay [13]; 2700 in assay [14]; 2580 in assay [15]; 319 in [16]; 677 in assay [17]. Also, the ECL signal in assay [18] was found to be 412; in assay [19], 660; in [20], 210; in assay [21], 287; in assay [22], 287; in [23], 218. Besides, the ECL signal in [24] is 20600; in assay [25], 17300; in assay [26], 15900; in assay [27], 14400.
“Fab VH3-23_IGHD3-10*01>3_IGHJ6*01 R104A & O12_IGKJ1*01”: the ECL multispot value (looks like signal/blank ratio; not labelled) in assay [28] was 2.7.
As for “Fab VH3-23_IGHD3-10*01>3_IGHJ6*01 Y112Q & O12_IGKJ1*01”, the ECL signal/blank ratio was found to be 1.8 in assay [29]; 1.4 in assay [30]; 1.2 in [31]; 2.4 in assay [32]; 1.4 in assay [33]; 1.6 in assay [34]. Moreover, the ECL signal/blank ratio is 1.7 in [35] and 3 in assay [36].
Turning to “Fab VH3-23_IGHD3-10*01>3_IGHJ6*01 Y115G & O12_IGKJ1*01”, in assay [28], the ECL multispot value (looks like signal/blank ratio; not labelled) stood at 2.7.
On to “Fab VH4-31_IGHD2-15*01_IGHJ2*01 & V1-4_IGLJ4*01”, for which the ECL signal at 3.3 nM Fab in assay [37] worked out at 743. This substance also yielded an ECL signal at 13.1 nM Fab in [38] of 814. In assay [39], this substance registered an ECL signal at 210 nM Fab of 1430. The ECL signal at 52.5 nM Fab in [40] amounted to 911.
